Among the data in article PMC4909209 are Ki values, retold here.

A word on the Ki: it is the equilibrium dissociation constant of an inhibitor or competing ligand from its target. A higher Ki goes with weaker binding.

Experiment [1] deals with de-tagged Ls-AChBP (Lymnaea stagnalis acetylcholine binding protein) (Lymnaea stagnalis) (UniProt P58154). Kind of experiment: radioligand binding.
Experiment [2] has as its target ubiquitin tagged Ac-AChBP (Aplysia californica acetylcholine binding protein) (Aplysia californica). Nature of the experiment: radioligand binding.

Turning to alpha-conotoxin LsIA (peptide), the Ki stood at 700 nM in experiment [1] and 11 nM in experiment [2].

With “alpha-conotoxin ImI (from UniProt P50983 5-17) (peptide)”, the values for the Ki in experiment [1] and in experiment [2] were greater than 10000 nM and 3 nM, respectively.
